Substrate: O=[N+]([O-])c1ccc(O[C@H]2O[C@H](CO)[C@@H](O[C@H]3O[C@H](CO)[C@@H](O)[C@H](O)[C@H]3O)[C@H](O)[C@H]2O)cc1
Experiment: purified protein
Type: biochemical, Lactiplantibacillus plantarum
Conditions: 50 mM MOPS pH 7.0, 20 mM NaCl, 1 mM DTT, 30 °C, substrate 0-10 mM

Row | Protein | Km [µM] | Vmax [µmol/min] | kcat [s⁻¹]
1 | Lp_2757, maltogenic α-amylase (Lactiplantibacillus plantarum WCFS1) (protein, gene 1722 bp) MQLAGIRHRPESEDTAVLAAHQLQVRLQTARDDVAQVEILFADSYLWQEGTTALERRIMQPGLATQGNQYWQTTLTVPTNRVVYAFLITDTIGATVGYGEGGFFDDVATNWQTVGNYFHMPYMHVSDAELPPAWVKETVWYQIFPERFANGVRQNDPANVQPWGAGRVHRDSFYGGDLPGITAHLDDLAALGVNGLYLCPIFTSPSNHKYDTIDHFEIDPHFGTKADFQALVDGAHARGMRVMLDAVFNHFGEQSPQWQDVIKNGEQSRFADWFHIHGWPVGRDPKTKRLNYETFATGAAMPKVNTQNPAVQAYLIDVTKYWIEQFGIDAWRFDVADEVDHGFWRALCGALRAIKPDVYLLGESWHSSQSLVGNGQFNAVMNYPLTQPILALFNGQLNPEDYVGKTNLELMMYRQPNQQAMFNALDTHDTPRLLTTLHGQLTKFKSALTLLMLLPGSPCIYYGTEVAMAGGADPDNRRCMNWQPDEQEQQVRQFVTRLIKFRRQQADFLATSQLTWTIDGHCLILTRTDVEQTIQGRFNLGAQAVSTVSGVSPILTAGITANEMAPGGFELTVA | 620 ± 120 | 0.016 | 4.9142 ± 1.67e-05
2 | Lp_0179 (Amy2), maltose-forming α-amylase (Lactiplantibacillus plantarum WCFS1) (protein, gene 1320 bp) MARDTQTQLRNEMIYSVFVRNYSEAGNFAGVTADLQRIKDLGTDILWLLPINPIGEVNRKGTLGSPYAIKDYRGINPEYGTLADFKALTDRAHELGMKVMLDIVYNHTSPDSVLATEHPEWFYHDADGQLTNKVGDWSDVKDLDYGHHELWQYQIDTLLYWSQFVDGYRCDVAPLVPLDFWLEARKQVNAKYPETLWLAESAGSGFIEELRSQGYTGLSDSELYQAFDMTYDYDVFGDFKDYWQGRSTVERYVDLLQRQDATFPGNYVKMRFLENHDNARMMSLMHSKAEAVNNLTWIFMQRGIPLIYNGQEFLAEHQPSLFDRDTMVADRHGDVTPLIQKLVTIKQLPLLRAADYQLAVVEEGIVKITYRAAGEALTAWIPLKGQVTAVATKLAAGSYQNLLTDGPTEVVDGKLTVDGQPVLIKYVTNTAVTKVADQSN | 320 ± 70 | 0.017 | 3.856 ± 3.33e-05

— PMC6815381, “Unravelling the diversity of glycoside hydrolase family 13 α-amylases from Lactobacillus plantarum WCFS1” (Microbial Cell Factories, 2019)
